Literature values in paper PMC4854875.

Target: UBE2T (Homo sapiens) (UniProt Q9NPD8)
UniProt Q9NPD8, sequence (Q9NPD8 whole entry): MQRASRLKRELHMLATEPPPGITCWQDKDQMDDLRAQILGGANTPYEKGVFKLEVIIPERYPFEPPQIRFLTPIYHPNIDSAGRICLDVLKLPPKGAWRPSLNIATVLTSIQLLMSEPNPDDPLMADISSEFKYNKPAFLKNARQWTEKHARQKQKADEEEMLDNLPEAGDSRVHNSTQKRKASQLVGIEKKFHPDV

Kd: 0.454 µM
Substance: FANCL (from UniProt Q9NW38)
